Where a chain is given by its changes, count along the chain named.
B1: IR-028 antibody (antibody, V domains shown)
VH: DVQLVESGGGLVQPGGSRKLSCAASGFTFSSFGMHWVRQAPEKGLEWVAYISSGSSTIYYADTVKGRFTISRDNPKNTLFLQMTSLRSEDTAMYYCARTGTGAMDYWGQGTSVTVSS
VL: DVVMTQTPLSLPVSLGDQASISCRSSQSLVHSNGNTYLHWYLQKPGQSPKLLIYKVSNRFSGVPDRFSGSGSGTDFTLKISRVEAEDLGVYFCSQSTHVPPTFGGGTKLEIK
notes: mouse IgG2b
B2: IR-117 antibody (antibody, mouse IgG2b, V domains shown)
VH: not shown
VL: B1 VL with P101L, G105A, I111L
notes: mouse IgG2b
B3: IR-036 antibody (antibody, mouse IgG2b, V domains shown)
VH: QVTLKESGPGILQPSQTLSLTCSFSGFSLSTSGMGVSWIRQPSGKGLEWLAHIYWDDDKRYNPSLKSRLTISKDTSRNQVFLKITSVDTADTATYYCARRANYYGYGMDAMDYWGQGTSVTVSS
VL: B1 VL with V3L, L29I, H39E, F92Y, S94F, S96G, T97S, P101L, G105A, I111L
notes: mouse IgG2b
B4: IR-037 antibody (antibody, mouse IgG1, V domains shown)
VH: DVQLVESGGGLVQPGGSRKLSCAASGFTFSSFGMHWVRQAPEKGLEWVAYISSGSSTIYYADTVKGRFTISRDNPKNTLFLQMTSLRSEDTAMYYCARDGTMDYWGQGTSVTVSS
VL: B1 VL with V2A, V30E, H31N, H39N, K50Q, K55R, P64L, S94L, S96V
notes: mouse IgG1
B5: IR-098 antibody (antibody, mouse IgG2b, V domains shown)
VH: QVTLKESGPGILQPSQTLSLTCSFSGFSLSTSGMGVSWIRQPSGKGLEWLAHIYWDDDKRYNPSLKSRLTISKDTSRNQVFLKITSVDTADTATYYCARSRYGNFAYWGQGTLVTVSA
VL: B1 VL with V3L, L29I, H39E, F92Y, S94F, S96G, T97S, P101L, G105A, I111L
notes: mouse IgG2b
B6: IR-118 antibody (antibody, mouse IgG2a, V domains shown)
VH: QVQLKESGPGLVAPSQSLSITCTISGFSLTSYGVHWVRQPPGKGLEWLVVIWSDGSTTYNSALKSRLSISKDNSKSQLFLKMNSLQTDDTAMYYCARHSYRYGLMDYWGQGTSVTVSS
VL: B1 VL with P101L, G105A, I111L
notes: mouse IgG2a
B7: IR-039 antibody (antibody, mouse IgG2b, V domains shown)
VH: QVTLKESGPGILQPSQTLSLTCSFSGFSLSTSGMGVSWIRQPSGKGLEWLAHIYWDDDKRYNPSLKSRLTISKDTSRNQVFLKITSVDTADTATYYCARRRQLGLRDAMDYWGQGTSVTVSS
VL: B1 VL with V3L, L29I, H39E, F92Y, S94F, S96G, T97S, P101L, G105A, I111L
notes: mouse IgG2b
B8: IR-128 antibody (antibody, V domains shown)
VH: B4 VH with D99E, T101H, M102F, S110T, V111L
VL: B1 VL
notes: mouse IgG2a
B9: IR-107 antibody (antibody, mouse IgG2b, V domains shown)
VH: DVQLVESGGGLVQPGGSRKLSCAASGFTFSSFGMHWVRQAPEKGLEWVAYISSGSSTIYYADTVKGRFTISRDNPKNTLFLQMTSLRSEDTAMYYCARYGYAMDYWGQGTSVTVSS
VL: B1 VL with V3L, L29I, H39E, F92Y, S94F, S96G, T97S
notes: mouse IgG2b
B10: IR-125 antibody (antibody, mouse IgG2b, V domains shown)
VH: DVQLVESGGGLVQPGGSRKLSCAASGFTFSSFGMHWVRQAPEKGLEWVAYISSGSSTIYYADTVKGRFTISRDNPKNTLFLQMTSLRSEDTAMYYCARAGGYSLSYAMDYWGQGTSVTVSS
VL: B1 VL with V3L, L29I, H39E, F92Y, S94F, S96G, T97S
notes: mouse IgG2b
B11: IR-077 antibody (antibody, mouse IgG2a, V domains shown)
VH: B10 VH with A99S, G101Y, Y102R, S103Y, L104S, S105Y
VL: B1 VL with V3L, L29I, H39E, F92Y, S94F, S96G, T97S, P101L, G105A, I111L
notes: mouse IgG2a
B12: IR-124 antibody (antibody, mouse IgG2a, V domains shown)
VH: B1 VH with R98I, T99Y, G100Y, T101Y, A103S, M104S, D105Y, S112T, V113L
VL: B1 VL with V3L, L29I, H39E, F92Y, S94F, S96G, T97S, G105A, I111L
notes: mouse IgG2a
B13: IR-062 antibody (antibody, mouse IgG2b, V domains shown)
VH: B1 VH with T99Y, G100Y, T101H, G102Y
VL: B1 VL with V3L, L29I, H39E, F92Y, S94F, S96G, T97S
notes: mouse IgG2b
B14: IR-063 antibody (antibody, mouse IgG2b, V domains shown)
VH: B4 VH with D99E, T101D, M102F, S110T, V111L
VL: B1 VL with P101L, G105A, I111L
notes: mouse IgG2b
B15: IR-127 antibody (antibody, mouse IgG2a, V domains shown)
VH: B10 VH with A99K, G101T, S103Y, L104R, S105Y, Y106D, M108F, S116T, V117L
VL: B1 VL with V3L, L29I, H39E, F92Y, S94F, S96G, T97S
notes: mouse IgG2a
B16: IR-057 antibody (antibody, mouse IgG1, V domains shown)
VH: B1 VH with T99Y, T101N, G102Y
VL: B1 VL with V3L, L29I, H39E, F92Y, S94F, S96G, T97S
notes: mouse IgG1
B17: IR-038 antibody (antibody, mouse IgG2b, V domains shown)
VH: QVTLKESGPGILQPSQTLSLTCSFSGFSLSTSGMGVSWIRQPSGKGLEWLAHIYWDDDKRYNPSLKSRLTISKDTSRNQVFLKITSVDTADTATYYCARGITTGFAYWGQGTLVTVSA
VL: B1 VL with V3L, L29I, H39E, F92Y, S94F, S96G, T97S, P101L, G105A, I111L
notes: mouse IgG2b
B18: IR-146 antibody (antibody, mouse IgG2a, V domains shown)
VH: B1 VH with T99G
VL: B1 VL with V3L, L29I, H39E, F92Y, S94F, S96G, T97S
notes: mouse IgG2a
B19: IR-108 antibody (antibody, mouse IgG2a, V domains shown)
VH: QVTLKESGPGILKPSQTLSLTCSFSGFSLSTSGMGVGWIRQPSGKGLEWLAHIWWDDDKYYNPSLKSQLTISKDTSRNQVFLKITSVDTADTATYYCARRGLRRGDYFDYWGQGTTLTVSS
VL: B1 VL with V3L, L29I, H39E, F92Y, S94F, S96G, T97S, P101L, G105A, I111L
notes: mouse IgG2a
B20: IR-083 antibody (antibody, mouse IgG2b, V domains shown)
VH: DVQLVESGGGLVQPGGSRKLSCAASGFTFSRFGMYWVRQAPEKGLEWVAYISSGSSTIYYADIVKGRFTISRDNPKNTLFLQMTSLRSEDTAMYYCARRGYYEAMDYWGQGTSVTVSS
VL: B1 VL with V3L, L29I, H39E, E86D, F92Y, S94F, S96G, T97S
notes: mouse IgG2b
B21: IR-060 antibody (antibody, mouse IgG2a, V domains shown)
VH: B10 VH with A99G, G101N, S103L, L104R, S105Y
VL: B1 VL with V3L, L29I, H39E, F92Y, S94F, S96G, T97S, P101L, G105A, I111L
notes: mouse IgG2a
B22: IR-041 antibody (antibody, mouse IgG2a, V domains shown)
VH: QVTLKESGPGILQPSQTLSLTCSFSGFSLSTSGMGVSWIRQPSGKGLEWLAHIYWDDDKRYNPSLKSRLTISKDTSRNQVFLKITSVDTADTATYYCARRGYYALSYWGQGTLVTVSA
VL: B1 VL with V3L, L29I, H39E, F92Y, S94F, S96G, T97S, P101L, G105A, I111L
notes: mouse IgG2a
B23: IR-095 antibody (antibody, mouse IgG2b, V domains shown)
VH: B3 VH with N102P, Y103R, Y104L, G105Y, M108Y
VL: B1 VL with V3L, L29I, H39E, F92Y, S94F, S96G, T97S, P101L, G105A, I111L
notes: mouse IgG2b
B24: IR-079 antibody (antibody, mouse IgG2b, V domains shown)
VH: DVQLVESGGGLVQPGGSRKLSCAASGFTFSSFGMHWVRQAPEKGLEWVAYISSGSSTIYYADTVKGRFTISRDNPKNTLFLQMTSLRSEDTAMYYCARYGTLYYYAMDYWGQGTSVTVSS
VL: B1 VL with V3L, L29I, H39E, F92Y, S94F, S96G, T97S
notes: mouse IgG2b
B25: IR-067 antibody (antibody, mouse IgG2b, V domains shown)
VH: B20 VH with R31S, Y35H, I63T, R99S, Y101G, Y102N, E103Y, A104L
VL: B1 VL with V3L, L29I, H39E, F92Y, S94F, S96G, T97S, P101L, G105A, I111L
notes: mouse IgG2b
B26: IR-097 antibody (antibody, mouse IgG2b, V domains shown)
VH: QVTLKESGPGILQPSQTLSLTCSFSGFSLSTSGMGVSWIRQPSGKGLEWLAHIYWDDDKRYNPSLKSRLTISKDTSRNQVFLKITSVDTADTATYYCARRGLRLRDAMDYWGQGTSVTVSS
VL: B1 VL with V3L, L29I, H39E, F92Y, S94F, S96G, T97S, P101L, G105A, I111L
notes: mouse IgG2b
B27: IR-110 antibody (antibody, mouse IgG2b, V domains shown)
VH: B9 VH with R98S, Y101N, A102Y, M103G, D104A, S111L, S116A
VL: B1 VL with V3L, L29I, H39E, F92Y, S94F, S96G, T97S
notes: mouse IgG2b
B28: IR-112 antibody (antibody, mouse IgG2a, V domains shown)
VH: QVTLKESGPGILKPSQTLSLTCSFSGFSLSTSGMGVGWIRQPSGKGLEWLAHIWWDDDKYYNPSLKSQLTISKDTSRNQVFLKITSVDTADTATYYCARRSMITTNDYFDYWGQGTTLTVSS
VL: B1 VL with V3L, L29I, H39E, F92Y, S94F, S96G, T97S
notes: mouse IgG2a
B29: IR-121 antibody (antibody, mouse IgG2b, V domains shown)
VH: B1 VH with R98T, T99Y, T101I, G102Y
VL: B1 VL with V3L, L29I, H39E, F92Y, S94F, S96G, T97S
notes: mouse IgG2b
B30: IR-152 antibody (antibody, mouse IgG2b, V domains shown)
VH: B20 VH with R31S, Y35H, I63T, R99G, Y101H, Y102V, E103G
VL: B1 VL with P101W
notes: mouse IgG2b
B31: IR-081 antibody (antibody, mouse IgG2b, V domains shown)
VH: B20 VH with R31S, Y35H, I63T, G100W, Y101G, Y102E, E103G
VL: B1 VL with V3L, L29I, H39E, F92Y, S94F, S96G, T97S
notes: mouse IgG2b
B32: IR-094 antibody (antibody, mouse IgG2b, V domains shown)
VH: EVKLEESGGGLVQPGGSMKLSCVASGFTFSNYWMNWVRQSPEKGLEWVAEIRLKSNNYATHYAESVKGRFTISRDDSKSSVYLQMNNLRAEDTGIYYCTRRGPSGYDRAWFAYWGQGTLVTVSA
VL: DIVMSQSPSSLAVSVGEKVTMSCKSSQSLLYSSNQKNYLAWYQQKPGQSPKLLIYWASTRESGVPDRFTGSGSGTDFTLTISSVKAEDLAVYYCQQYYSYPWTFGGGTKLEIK
notes: mouse IgG2b

The binders below were run against T1, A beta oligomer (synthetic A beta1-40, HCl form, 0.1 mg/ml in PBS, incubated at 37 degrees C for one hour) (UniProt P05067 672-711) (assay: SPR (Biacore 3000)).
T1 construct: domain: A beta1-40; non-fibrous multimer of the peptide; also called A beta 1-40 oligomer
Method: The analysis was carried out by Surface Plasmon Resonance (SPR) using Biacore 3000 (GE Healthcare Sciences).

Binder | Kd | koff | kon
B1 | 0.852 µM | 0.27 s⁻¹ | 317000 M⁻¹ s⁻¹
B2 | 0.921 µM | 0.0668 s⁻¹ | 72500 M⁻¹ s⁻¹
B3 | 0.1 µM | 0.00876 s⁻¹ | 87600 M⁻¹ s⁻¹
B4 | 0.659 µM | 0.0609 s⁻¹ | 92400 M⁻¹ s⁻¹
B5 | 0.0363 µM | 0.0138 s⁻¹ | 380000 M⁻¹ s⁻¹
B6 | 0.0275 µM | 0.00153 s⁻¹ | 55700 M⁻¹ s⁻¹
B7 | 0.0474 µM | 0.00711 s⁻¹ | 150000 M⁻¹ s⁻¹
B8 | 1.07 µM | 0.37 s⁻¹ | 345000 M⁻¹ s⁻¹
B9 | 0.339 µM | 0.1 s⁻¹ | 295000 M⁻¹ s⁻¹
B10 | 0.0788 µM | 0.00395 s⁻¹ | 50100 M⁻¹ s⁻¹
B11 | 0.55 µM | 0.153 s⁻¹ | 278000 M⁻¹ s⁻¹
B12 | 0.141 µM | 0.00995 s⁻¹ | 70400 M⁻¹ s⁻¹
B13 | 0.364 µM | 0.139 s⁻¹ | 382000 M⁻¹ s⁻¹
B14 | 1.27 µM | 0.145 s⁻¹ | 114000 M⁻¹ s⁻¹
B15 | 1.02 µM | 0.261 s⁻¹ | 256000 M⁻¹ s⁻¹
B16 | 0.156 µM | 0.0579 s⁻¹ | 370000 M⁻¹ s⁻¹

Binder | Kd | koff | kon
B17 | 0.0843 µM | 0.00752 s⁻¹ | 89200 M⁻¹ s⁻¹
B18 | 1.06 µM | 0.383 s⁻¹ | 361000 M⁻¹ s⁻¹
B19 | 0.0118 µM | 0.00296 s⁻¹ | 250000 M⁻¹ s⁻¹
B20 | 0.699 µM | 0.431 s⁻¹ | 617000 M⁻¹ s⁻¹
B21 | 2.61 µM | 0.2 s⁻¹ | 76700 M⁻¹ s⁻¹
B22 | 1.37 µM | 0.0949 s⁻¹ | 69400 M⁻¹ s⁻¹
B23 | 0.035 µM | 0.00331 s⁻¹ | 94600 M⁻¹ s⁻¹
B24 | 1.05 µM | 0.297 s⁻¹ | 282000 M⁻¹ s⁻¹
B25 | 0.549 µM | 0.118 s⁻¹ | 215000 M⁻¹ s⁻¹
B26 | 0.0157 µM | 0.00303 s⁻¹ | 193000 M⁻¹ s⁻¹
B27 | 0.177 µM | 0.0719 s⁻¹ | 407000 M⁻¹ s⁻¹
B28 | 0.0411 µM | 0.00376 s⁻¹ | 91400 M⁻¹ s⁻¹
B29 | 0.0842 µM | 0.00831 s⁻¹ | 98700 M⁻¹ s⁻¹
B30 | 0.0588 µM | 0.00227 s⁻¹ | 38600 M⁻¹ s⁻¹
B31 | 1.25 µM | 0.421 s⁻¹ | 336000 M⁻¹ s⁻¹
B32 | 0.0594 µM | 0.0215 s⁻¹ | 362000 M⁻¹ s⁻¹
